From patent US20170226161A1 (GlaxoSmithKline, published 2017)
“And” between values parts separate entries of the source, which are not always exact repeats. Equal entries are not always repeated.

T1: factor H comprising only domains 6-7 (UniProt P08603 321-443)
T1 sequence: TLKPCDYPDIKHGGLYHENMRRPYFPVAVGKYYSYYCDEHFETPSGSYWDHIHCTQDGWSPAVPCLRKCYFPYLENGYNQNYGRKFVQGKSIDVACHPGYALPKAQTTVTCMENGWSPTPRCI

B1: v3 fHbp with S32V (SEQ ID NO: 17 numbering) (other)
chain: VAADIGTGLADALTAPLDHKDKGLKSLTLEDVIPQNGTLTLSAQGAEKTFKAGDKDNSLNTGKLKNDKISRFDFVQKIEVDGQTITLASGEFQIYKQNHSAVVALQIEKINNPDKTDSLINQRSFLVSGLGGEHTAFNQLPGGKAEYHGKAFSSDDPNGRLHYSIDFTKKQGYGRIEHLKTLEQNVELAAAELKADEKSHAVILGDTRYGSEEKGTYHLALFGDRAQEIAGSATVKIGEKVHEIGIAGKQ
B2: 231 S fusion polypeptide (v2-v3-v1 fHbp, stabilised) (other)
chain: MGPDSDRLQQRRVAADIGAGLADALTAPLDHKDKSLQSLTLDQVVRKNEKLKLAAQGAEKTYGNGDSLNTGKLKNDKVSRFDFIRQIEVDGQLITLESGEFQIYKQDHSAVVALQIEKINNPDKIDSLINQRSFRVSGLGGEHTAFNQLPDGKAEYHGKAFSSDDAGGKLTYTIDFAAKQGHGKIEHLKTPEQNVELAAAELKADEKSHAVILGDTRYGSEEKGTYHLALFGDRAQEIAGSATVKIGEKVHEIGIAGKQGSGGGGVAADIGTGLADALTAPLDHKDKGLKSLTLEDVIPQNGTLTLSAQGAEKTFKAGDKDNSLNTGKLKNDKISRFDFVQKIEVDGQTITLASGEFQIYKQNHSAVVALQIEKINNPDKTDSLINQRSFRVSGLGGEHTAFNQLPGGKAEYHGKAFSSDDPNGRLHYSIDFTKKQGYGRIEHLKTLEQNVELAAAELKADEKSHAVILGDTRYGSEEKGTYHLALFGDRAQEIAGSATVKIGEKVHEIGIAGKQGSGGGGVAADIGAGLADALTAPLDHKDKGLQSLTLDQSVSKNEKLKLAAQGAEKTYGNGDSLNTGKLKNDKVSRFDFIRQIEVDGQLITLESGEFQVYKQSHSALTAFQTEQIQDSEHSGKMVAKRQFRIGDIAGEHTSFDKLPEGGRATYRGTAFGSDDAGGKLTYTIDFAAKQGNGKIEHLKSPELNVDLAAADIKPDGKRHAVISGSVLYNQAEKGSYSLGIFGGKAQEVAGSAEVKTVNGIRHIGLAAKQ

Tests used:
[1] = biological target: T2, human factor H (fH), immobilised (human, UniProt P08603 19-1231); assay: SPR (FIG. 6)
T2 construct: also called human fH
T2 sequence (P08603 19-1231): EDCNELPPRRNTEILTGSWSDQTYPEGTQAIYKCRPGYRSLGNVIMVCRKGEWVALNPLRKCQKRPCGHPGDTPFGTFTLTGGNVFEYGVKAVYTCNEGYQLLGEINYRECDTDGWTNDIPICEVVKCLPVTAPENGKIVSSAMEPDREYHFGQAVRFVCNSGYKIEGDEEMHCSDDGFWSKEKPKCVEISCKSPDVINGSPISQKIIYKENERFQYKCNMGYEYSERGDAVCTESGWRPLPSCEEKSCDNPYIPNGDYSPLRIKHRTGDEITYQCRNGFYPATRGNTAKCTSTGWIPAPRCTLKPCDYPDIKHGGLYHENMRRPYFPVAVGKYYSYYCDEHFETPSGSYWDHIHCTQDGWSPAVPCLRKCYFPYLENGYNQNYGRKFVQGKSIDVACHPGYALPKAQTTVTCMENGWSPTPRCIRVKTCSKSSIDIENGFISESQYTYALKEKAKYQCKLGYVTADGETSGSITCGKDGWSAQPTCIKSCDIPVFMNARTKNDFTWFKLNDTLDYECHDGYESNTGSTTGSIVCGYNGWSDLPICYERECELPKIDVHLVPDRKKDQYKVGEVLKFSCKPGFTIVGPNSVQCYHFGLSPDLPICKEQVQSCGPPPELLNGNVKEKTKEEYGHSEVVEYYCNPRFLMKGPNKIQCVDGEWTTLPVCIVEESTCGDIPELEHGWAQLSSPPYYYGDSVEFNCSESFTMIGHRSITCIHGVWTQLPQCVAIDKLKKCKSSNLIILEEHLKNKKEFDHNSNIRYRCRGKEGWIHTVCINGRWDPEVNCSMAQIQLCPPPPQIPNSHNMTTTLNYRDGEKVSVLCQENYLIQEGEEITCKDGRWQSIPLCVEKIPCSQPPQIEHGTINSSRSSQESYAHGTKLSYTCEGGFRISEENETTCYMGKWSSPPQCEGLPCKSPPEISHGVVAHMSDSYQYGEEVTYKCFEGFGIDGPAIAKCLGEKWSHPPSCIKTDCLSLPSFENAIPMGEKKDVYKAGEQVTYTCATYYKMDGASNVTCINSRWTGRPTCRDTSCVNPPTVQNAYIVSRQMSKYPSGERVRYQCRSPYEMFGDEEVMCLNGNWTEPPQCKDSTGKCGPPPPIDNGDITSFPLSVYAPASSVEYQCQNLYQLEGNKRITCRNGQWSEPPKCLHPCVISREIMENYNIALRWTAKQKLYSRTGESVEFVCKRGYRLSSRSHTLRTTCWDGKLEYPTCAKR

[2] = biological target: T1, factor H comprising only domains 6-7
[3] = biological target: factor H full length (Calbiochem) (UniProt P08603 19-1231)
factor H full length (Calbiochem), sequence (P08603 19-1231): as above

Binder	fold reduction of the SPR peak against wild-type v3 [1] [fold]	Kd [2]	Ration KD wt/x (residual binding) [2]	koff [2] [s⁻¹]	kon [2] [M⁻¹ s⁻¹]	Kd [3] [nM]	Ration KD wt/x (residual binding) [3]	koff [3] [s⁻¹]	kon [3] [M⁻¹ s⁻¹]
B1	~2								
B2		158 nM and 280 nM	0.076	0.11	710000	3100	0.1	0.064	21000
